Data set [1] concerns the molecule itself. Nature of the data set: SEC + SEC-MALS. (In gel filtration, larger molecules generally elute earlier.)
For data set [2], the target named is T1, MBP-RAG1 core WT;GST-RAG2 core (mouse (murine);mouse (murine), UniProt P15919;P21784 384-1008;1-383, |).
T1 sequence 1: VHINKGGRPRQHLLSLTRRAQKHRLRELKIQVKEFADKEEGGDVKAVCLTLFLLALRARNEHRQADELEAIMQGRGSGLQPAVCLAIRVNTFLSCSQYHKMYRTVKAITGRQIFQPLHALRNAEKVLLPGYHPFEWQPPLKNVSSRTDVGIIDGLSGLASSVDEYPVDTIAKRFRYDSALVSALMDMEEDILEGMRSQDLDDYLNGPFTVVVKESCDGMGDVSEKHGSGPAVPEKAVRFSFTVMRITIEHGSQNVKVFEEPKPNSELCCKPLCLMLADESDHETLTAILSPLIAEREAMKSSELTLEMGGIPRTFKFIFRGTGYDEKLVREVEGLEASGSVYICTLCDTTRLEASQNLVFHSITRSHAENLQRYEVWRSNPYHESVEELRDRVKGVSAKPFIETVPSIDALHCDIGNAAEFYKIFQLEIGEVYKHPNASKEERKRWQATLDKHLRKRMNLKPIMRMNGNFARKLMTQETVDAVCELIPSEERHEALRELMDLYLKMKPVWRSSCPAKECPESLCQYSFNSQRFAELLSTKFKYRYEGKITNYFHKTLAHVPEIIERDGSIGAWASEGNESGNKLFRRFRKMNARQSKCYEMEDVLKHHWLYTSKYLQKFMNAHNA
T1 sequence 2: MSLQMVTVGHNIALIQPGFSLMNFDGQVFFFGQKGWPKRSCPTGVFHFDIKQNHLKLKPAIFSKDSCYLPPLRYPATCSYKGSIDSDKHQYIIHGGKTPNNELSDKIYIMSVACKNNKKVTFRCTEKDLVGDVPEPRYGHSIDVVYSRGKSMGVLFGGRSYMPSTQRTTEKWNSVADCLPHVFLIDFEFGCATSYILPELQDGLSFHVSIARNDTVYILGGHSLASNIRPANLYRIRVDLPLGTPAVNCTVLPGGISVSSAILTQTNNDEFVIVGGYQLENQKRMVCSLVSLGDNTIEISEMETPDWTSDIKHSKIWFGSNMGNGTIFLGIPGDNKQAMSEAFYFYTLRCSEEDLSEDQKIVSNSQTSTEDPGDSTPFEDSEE
The data set is described as follows: EMSA. (In EMSA bound probe runs differently from free probe, usually more slowly.)

For data set [3], the target named is MBP-RAG1 core WT;GST-RAG2 core;His-HMGB1 (mouse (murine);mouse (murine);human, UniProt P15919;P21784;P09429 384-1008;1-383;1-215, ||). The data set is described as follows: EMSA.
Chain of MBP-RAG1 core WT;GST-RAG2 core;His-HMGB1 (P09429 whole entry, one chain of several): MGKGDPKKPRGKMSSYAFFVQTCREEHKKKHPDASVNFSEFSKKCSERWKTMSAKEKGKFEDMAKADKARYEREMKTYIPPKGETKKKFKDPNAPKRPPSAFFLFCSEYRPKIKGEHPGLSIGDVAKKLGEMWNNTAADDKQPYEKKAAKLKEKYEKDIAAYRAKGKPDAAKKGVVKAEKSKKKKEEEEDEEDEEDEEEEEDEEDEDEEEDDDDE
Data set [4] concerns the target T2, RAG1 NBD (mouse (murine), UniProt P15919 389-464).
T2 sequence: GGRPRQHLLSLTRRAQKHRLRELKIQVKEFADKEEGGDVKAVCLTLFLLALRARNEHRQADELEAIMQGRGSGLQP
Nature of the data set: crystal structure.

The target of data set [5] is T2, RAG1 NBD. The data set is described as follows: crystal structure. The source holds these as a separate data set.

Consider 4 molecules from article PMC2715281 (Nature structural & molecular biology, 2009).

Like-named read-outs stand apart in the source and are kept apart here.

For orientation: stoichiometry N means the number of molecules, sites or subunits per partner or assembly.

B1: His6-tagged RAG1 nonamer-binding domain (murine RAG1 residues 389-464) (domain or fragment, UniProt P15919 389-464, looked up)
chain: T2 sequence
For B1, in data set [1], the “stoichiometry N” value was 2.

B2: Consensus 12RSS (dsDNA)
DNA 1: GATCTGGCCTGTCTTACACAGTGATACAGACCTTAACAAAAACCTGCACTCGAGCGGAG
DNA 2: CTCCGCTCGAGTGCAGGTTTTTGTTAAGGTCTGTATCACTGTGTAAGACAGGCCAGATC
With B2, the binding signal in data set [2] was 1 relative to WT. The binding result in data set [3] was “binds”.

B3: Native crystal 14-mer (nonamer plus 4 bp of 12RSS spacer) (dsDNA)
DNA 1: ACTTAACAAAAACC
DNA 2: TGGTTTTTGTTAAG
As to B3, the binding result in data set [4] is “binds”.

B4: 56DNA crystal 14-mer (symmetrized) (dsDNA)
DNA 1: AGTTTTCAGAAACC
DNA 2: AGGTTTCTGAAAAC
Take B4: the binding result in data set [5] is recorded as “binds”.
